Measurements published in patent publication US20090074762A1.

Target: T1, TweakR on cells (TweakR-expressing cells, TweakR transfectant cell line, A375 melanoma cells, tumor tissue) (human) (UniProt Q9NP84)
T1 sequence: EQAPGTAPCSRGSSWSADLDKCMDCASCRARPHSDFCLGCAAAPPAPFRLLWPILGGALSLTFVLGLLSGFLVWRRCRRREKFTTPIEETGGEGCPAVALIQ
Experiment: cell-based or functional assay

agonist activity (IL-8 release assay): 12%
B1: anti-TweakR antibody ITEM4 (antibody, from another filing, V domains shown)
VH: QVQLQQSGPELVKPGASVKMSCKASGYTFTDFIIAWVKQRTGQGLEWIGEIYPGTGRTYYSEKFRGKATLTADKSSNTAYMQLSSLTSVDSAVYFCARRTIYYDYDGDYWGQGTTLTVSS
VL: DIVMTQAAFSNPVTLGTSASISCRSSKSLLHSNGITYLYWYLQKPGQSPQLLIYQMSNLASGVPDRFSSSGSGTDFTLRISRVEAEDVGVYYCAHNLELPWTFGGGTKLELK
